The results in this text go back to patent US20190177408A1 (SUZHOU CONNECT BIOPHARMACEUTICALS, published 2019).

The labels stand for the following.
B1: L1001H1000 (antibody, V domains shown)
VH: EVQLVQSGGGLVHPGGSLRLSCAGSGFTFSRNAMFWVRQAPGKGLEWVSGIGTGGATNYADSVKGRFTISRDNAKNSLYLQMNSLRAEDMAVYYCARGRYYFDYWGQGTLVTVSS
VL: EIVLTQSPGTLSLSPGERATLSCRASQSVSNSYLAWYQQKPGQAPRLLIYGASSRAPGIPDRFSGSGSGTDFTLTISRLEPEDFAVYYCQQYDHSAGWTFGQGTKVEIK
notes: human kappa
B2: L1021H1027 (antibody, V domains shown)
VH: B1 VH with Q6E, G24A, N58S, M90T, D103P, Y104W
VL: B1 VL with N31S, Y50F
notes: human kappa
B3: L1021H1000 (antibody, V domains shown)
VH: B1 VH
VL: B1 VL with N31S, Y50F
notes: human kappa
B4: L1021H1007 (antibody, V domains shown)
VH: B1 VH with N58S
VL: B1 VL with N31S, Y50F
notes: human kappa
B5: L1021H1029 (antibody, V domains shown)
VH: B1 VH with Q6E, H13Q, G24A, N58S, D103P, Y104W
VL: B1 VL with N31S, Y50F
notes: human kappa
B6: L1024H1031 (antibody, V domains shown)
VH: B1 VH with Q6E, H13Q, G24A, N58S, M90T
VL: B1 VL with Y50F
notes: human kappa
B7: L1022H1000 (antibody, V domains shown)
VH: B1 VH
VL: B1 VL with P57T
notes: human kappa
B8: L1019H1000 (antibody, V domains shown)
VH: B1 VH
VL: B1 VL with Y50F, P57T
notes: human kappa
B9: L1024H1007 (antibody, V domains shown)
VH: B1 VH with N58S
VL: B1 VL with Y50F
notes: human kappa
B10: L1023H1000 (antibody, V domains shown)
VH: B1 VH
VL: B1 VL with N31S
B11: L1024H1000 (antibody, V domains shown)
VH: B1 VH
VL: B1 VL with Y50F
notes: human kappa

Numbering of substitutions follows the chain as printed.

One test has as its target T1, IL-4Rα on TF-1 cells (human, UniProt P24394 26-825).
T1 sequence (looked up): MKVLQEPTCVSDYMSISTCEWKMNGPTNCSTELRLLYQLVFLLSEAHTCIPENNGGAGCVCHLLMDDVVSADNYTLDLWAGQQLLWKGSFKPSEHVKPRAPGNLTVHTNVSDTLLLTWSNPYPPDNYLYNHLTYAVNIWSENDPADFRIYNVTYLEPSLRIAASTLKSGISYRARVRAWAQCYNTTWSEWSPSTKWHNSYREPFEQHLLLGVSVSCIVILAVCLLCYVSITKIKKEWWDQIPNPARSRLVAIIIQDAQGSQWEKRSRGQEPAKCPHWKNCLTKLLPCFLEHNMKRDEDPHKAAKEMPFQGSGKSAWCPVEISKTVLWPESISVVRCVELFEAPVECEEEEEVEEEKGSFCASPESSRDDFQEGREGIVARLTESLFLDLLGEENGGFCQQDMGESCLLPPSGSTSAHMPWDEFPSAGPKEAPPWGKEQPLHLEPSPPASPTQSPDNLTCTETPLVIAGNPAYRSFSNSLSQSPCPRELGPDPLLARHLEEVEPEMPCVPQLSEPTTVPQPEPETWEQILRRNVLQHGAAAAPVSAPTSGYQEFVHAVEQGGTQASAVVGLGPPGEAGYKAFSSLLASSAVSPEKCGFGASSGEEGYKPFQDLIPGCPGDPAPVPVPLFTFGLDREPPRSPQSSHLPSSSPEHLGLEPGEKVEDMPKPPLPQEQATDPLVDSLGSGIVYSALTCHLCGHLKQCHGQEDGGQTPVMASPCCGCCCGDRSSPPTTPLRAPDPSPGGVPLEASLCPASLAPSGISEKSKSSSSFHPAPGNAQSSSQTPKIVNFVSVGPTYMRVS
The test is described as follows: cell-based or functional assay.
In the case of B1, the “Inhibitory rate on pro-proliferative effect of IL-4” value (“Inhibitory rate … of IL-4” below) was found to be 0.98 and the “Inhibitory rate on pro-proliferative effect of IL-13” value (“Inhibitory rate … of IL-13” for short) came out at 0.85.

As to B2, the “Inhibitory rate … of IL-4” value was determined as 1.02 and the “Inhibitory rate … of IL-13” value was found to be 0.94.

For B3, the “Inhibitory rate … of IL-4” value was 0.95 and the “Inhibitory rate … of IL-13” value was 0.78.

As for B4, the “Inhibitory rate … of IL-4” value was determined as 1 and the “Inhibitory rate … of IL-13” value worked out at 0.86.

For B5, the “Inhibitory rate … of IL-4” value turned out to be 1.02 and the “Inhibitory rate … of IL-13” value is 0.92.

For B6, the “Inhibitory rate … of IL-4” value turned out to be 1.01 and the “Inhibitory rate … of IL-13” value was determined as 0.94.

The target of a further test is T1, IL-4Rα on TF-1 cells. Nature of the test: cell-based or functional assay. The source holds these as a separate data set.
As to B7, the “Inhibitory rate … of IL-4” value is -0.05 and the “Inhibitory rate … of IL-13” value is 0.02.

Turning to B8, the “Inhibitory rate … of IL-4” value was 0.72 and the “Inhibitory rate … of IL-13” value was 0.49.

Consider B9, for which the “Inhibitory rate … of IL-4” value came to 0.86 and the “Inhibitory rate … of IL-13” value was found to be 0.7.

For the molecule B10, the “Inhibitory rate … of IL-4” value stood at 0.26 and the “Inhibitory rate … of IL-13” value worked out at 0.07.

Take B11: the “Inhibitory rate … of IL-4” value was found to be 0.44 and the “Inhibitory rate … of IL-13” value amounted to 0.39.

A further test has as its target T2, human soluble IL-4Rα (sIL-4Rα) (human, UniProt P24394 26-232).
T2 construct: Bought reagent (PEPRO TECH, Catalog Number 200-04R); also called shIL-4Rα; soluble hIL-4 Rα
T2 sequence: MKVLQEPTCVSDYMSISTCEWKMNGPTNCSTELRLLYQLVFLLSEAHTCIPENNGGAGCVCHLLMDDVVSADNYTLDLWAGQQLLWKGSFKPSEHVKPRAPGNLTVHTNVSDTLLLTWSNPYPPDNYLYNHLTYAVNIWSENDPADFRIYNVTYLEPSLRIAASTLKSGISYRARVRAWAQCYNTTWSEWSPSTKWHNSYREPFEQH
The test is described as follows: ELISA, coated sIL-4Rα, culture supernatant. The procedure:
100 μl of 100 μg/ml sIL-4Rα solution was added to 9.90 ml of PBS, mixed up and down, and then an antigen coating buffer of 1.0 μg/ml was obtained. The prepared antigen coating buffer was added to a 96-well ELISA plate (Corning) with a volume of 100 μl per well. The 96-well ELISA plate was incubated overnight in a refrigerator at 4° C. On the next day; the solution therein was discarded; and PBS containing 2% BSA was added to the 96-well ELISA plate row by row with a volume of 300 μl per well. The 96-well ELISA plate was incubated for 2 hours in a refrigerator at 4° C., Then the PBS containing 2% BSA was discarded and the plate was washed 3 times with PBST. Diluted antibodies to be tested were sequentially added to the corresponding wells, while the normal cell culture supernatants, as negative control samples, were added too. Three duplicate wells were made for each sample with a volume of 100 μl per well. The ELISA plate was wrapped with preservative film (or covered) and incubated for 1 h at […] in a constant temperature incubator. Subsequently, the 96-well ELISA plate was taken out, and the solution therein was discarded. After washing with PBST for 3 times, TMB solution (Solarbio, Catalog Number: PR1200) was added to the 96-well ELISA plate row by row with a volume of 100 μl per well. The 96-well ELISA plate was placed at room temperature for 5 minutes, and 2 M H2SO4 solution was added in immediately to terminate the reaction. The 96-well ELISA plate was placed in flexstation 3 (Molecular Devices), the values of OD450 were read, and the data were collected, calculated and analyzed. Results were expressed relative to the affinity of control antibody 1.
(An ELISA detects its analyte on a solid surface through an enzyme-linked reagent.)
As to B1, the “OD 450/OD450Control antibody 1” value stood at 1.56.

On to B7, for which the “OD 450/OD450Control antibody 1” value is 0.16.

For the molecule B2, the “OD 450/OD450Control antibody 1” value worked out at 0.29.

With B3, the “OD 450/OD450Control antibody 1” value was 2.42.

On to B4, for which the “OD 450/OD450Control antibody 1” value was 0.44.

As for B5, the “OD 450/OD450Control antibody 1” value worked out at 1.

Take B8: the “OD 450/OD450Control antibody 1” value amounted to 1.79.

For the molecule B9, the “OD 450/OD450Control antibody 1” value turned out to be 0.23.

For B6, the “OD 450/OD450Control antibody 1” value is 0.9.

For B11, the “OD 450/OD450Control antibody 1” value worked out at 0.69.
